From patent US20220133889A1

Legend:
huTIM-3/his (human) [1] = target: huTIM-3/his (human) (UniProt Q8TDQ0); experiment: Biacore sequential injection; value belongs to the 2nd antibody huIgG1; competitor (1st antibody) ABTIM3-hum11
huTIM-3/his (human) [2] = target: huTIM-3/his (human) (UniProt Q8TDQ0); experiment: Biacore sequential injection; value belongs to the 2nd antibody huIgG1; competitor (1st antibody) ABTIM3-hum21
huTIM-3/his (human) [3] = target: huTIM-3/his (human) (UniProt Q8TDQ0); experiment: Biacore sequential injection; value belongs to the 2nd antibody huIgG1; competitor (1st antibody) ABTIM3-hum03
huTIM-3/his (human) [4] = target: huTIM-3/his (human) (UniProt Q8TDQ0); experiment: Biacore sequential injection; value belongs to the 2nd antibody huIgG1; competitor (1st antibody) huIgG1
huTIM-3/his (human) [5] = target: huTIM-3/his (human) (UniProt Q8TDQ0); experiment: Biacore, hTIM-3/his captured by anti-His antibody on a CM5 chip; first injection

change in RU (2nd antibody injection) (huTIM-3/his (human) [1]): 3.8 RU
change in RU (2nd antibody injection) (huTIM-3/his (human) [2]): 4.5 RU
change in RU (2nd antibody injection) (huTIM-3/his (human) [3]): 4.5 RU
change in RU (2nd antibody injection) (huTIM-3/his (human) [4]): 3.6 RU
change in RU (1st antibody injection) (huTIM-3/his (human) [5]): 0.27 RU
Substance: huIgG1 (antibody)
